Reference: article PMC4627693

System: Cys-Srctide (Biotin-ZZICGEFRRR)
Assay: cross-linking

c-Src tyrosine kinase (recombinant)
percent conversion to crosslinked product: 40% conversion in 25 minutes
